Measured values reported in patent US20250164487, “METHOD FOR […] ANALYTE USING POLYNUCLEOTIDE” (NATIONAL UNIVERSITY CORPORATION TOKYO UNIVERSITY OF …, published 2025).

Assays:
[1] = target: T1, SARS-CoV-2 spike protein receptor-binding domain (RBD) (SARS-CoV-2, UniProt P0DTC2 P0DTC2:319-541)
BSA = BSA (UniProt P02769 P02769:25-607)
[2] = target: T1, SARS-CoV-2 spike protein …; test: […]; PBS pH 7.4, room temperature

BSA, sequence (P02769 25-607, one chain of several): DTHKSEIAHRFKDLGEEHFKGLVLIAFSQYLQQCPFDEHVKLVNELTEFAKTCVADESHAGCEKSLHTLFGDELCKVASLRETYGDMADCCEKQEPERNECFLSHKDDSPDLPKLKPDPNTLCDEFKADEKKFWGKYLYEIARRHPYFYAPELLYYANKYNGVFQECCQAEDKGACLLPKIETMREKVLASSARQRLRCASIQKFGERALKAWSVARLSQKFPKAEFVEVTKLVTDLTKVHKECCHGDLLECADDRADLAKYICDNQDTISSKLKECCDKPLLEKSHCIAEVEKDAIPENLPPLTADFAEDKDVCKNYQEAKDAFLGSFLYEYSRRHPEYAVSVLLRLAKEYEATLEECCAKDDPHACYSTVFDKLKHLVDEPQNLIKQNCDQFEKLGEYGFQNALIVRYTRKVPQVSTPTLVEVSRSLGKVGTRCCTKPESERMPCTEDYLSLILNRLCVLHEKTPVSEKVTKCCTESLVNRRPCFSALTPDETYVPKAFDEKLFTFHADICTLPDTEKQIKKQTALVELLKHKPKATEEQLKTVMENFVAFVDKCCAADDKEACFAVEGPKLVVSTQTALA

| Binder | binding result [1] | binding result (BSA) | Kd [2] [nM] |
| --- | --- | --- | --- |
| AGGGGCTGCTCGGGATTGCGGATATGGA (ssDNA) [RBD-45] | binds |  |  |
| GGGGCTGCTCGGGATTGCGGATATGG (ssDNA) [RBD-46] |  | no binding | 34.7 |
